Source: publication PMC6055799

Biological target: GFP-RTN1 (reticulon RTN1 fused to GFP; FRET donor) (Arabidopsis)
Test: FRET or BRET; FRET-FLIM (two-photon microscope): donor GFP-RTN1 and RFP-tagged acceptor coinfiltrated into N. tabacum leaf epidermal cells, measured after 48 h in low-mobility ER continuous with the nuclear envelope; donor lifetime compared with GFP-RTN1 alone

Row | reduction of the donor (GFP-RTN1) fluorescence lifetime [ns] | Molecule
1 | 0.2 | AtLNP2-RFP (Arabidopsis Lunapark 2, splice variant AtLNP2.1, fused to RFP; FRET acceptor) (natural protein)
2 | 0.2 | AtLNP1-RFP (Arabidopsis Lunapark 1 fused to RFP; FRET acceptor) (natural protein) MAVGEKEHEGTVVESGGEKNDSAVVLSASGEKKTTKRKGLFSRLWNAIFRVRGDDFEKRLKNISKEEATVRNRMKRRSITRRNFIRNLIAFSVFFEVIAVSYAIMTTRDEDLDWKLRSFRILPMFLLPAVAFLLYSSLVGFWRMCDRRDQHTLEKLQAEMLGKINELKERTNYYITQQLIQRYDPDPAAKAAAATVLASKLGAESGLKVFVGDESQLEPTAGKNNAKHSGGLRNRKQTNTRGNSAETTPIHHSDNESNHSGTSERITGTEQNQQMVFEHYNPQEYAAHDGSWISRIAALLVGEDPSQSYALICGNCRMHNGLARKEDFPYITYYCPHCRALNKPKHSEEHSLIAPADTLPKVSLKPMESEVINSSSSTSERGNSPIPLLHTPEIVEEVPETAENETPN
